What all share (experiment): SPR
For orientation: Surface plasmon resonance follows binding to a sensor surface in real time, without labels.

Assay [1] has as its target recombinant SOCS1 in complex with Elongins BC (UniProt O15524).
For assay [2], the target named is recombinant CIS in complex with Elongins BC (GST removed) (human) (UniProt Q9NSE2).
Assay [3] concerns the target recombinant SOCS2 in complex with Elongins BC (UniProt O14508).

pIC50: −log10 of the molar value.

Take “ARAP2-pY415 peptide (competitor phosphopeptide)”: the pIC50 (as a rule, the negative decadic logarithm of the IC50, by convention in mol/L) in assay [1] was 7.30; in assay [2], 6.70; in assay [3], 5.78.

(Values after doi:10.1101/2025.04.28.650977.)
